Measurements reported in patent EP4763865A1.
Where two headings read alike, the source gives them in different places.

B1: MH172-HGF R-7-2-92 (VHH)
VHH: QLQLVESGGGLVQAGGSLRLSCAASGRITNTYVMGWFRQAPGKERELQAAITWTVGSTYYVDSVKGRFTISRDNAKNTLYLQMNSLKPEDTAVYYCAASRFSAWPPRGTLGEWNSWGQGTQVTVSS

What was measured:
[1] = target: human c-MET on Hs746T human gastric cancer cells (human) (UniProt P08581); assay: flow cytometry on Hs746T cells, 4-parameter fit
[2] = target: Human c-MET, His Tag (Sino Biological, Cat. No. 10692-H08H) (human) (UniProt P08581); assay: ELISA, coated human c-MET His Tag, 4-parameter fit
[3] = target: human c-MET on Hs746T human gastric cancer cells (human) (UniProt P08581); assay: cell-based or functional assay
[4] = target: human c-MET on Hs746T human gastric cancer cells (human) (UniProt P08581); assay: cell-based or functional assay; remark: listed apart in the source
[5] = target: human c-MET on Hs746T human gastric cancer cells (human) (UniProt P08581); assay: flow cytometry on Hs746T cells, PE secondary antibody, 4-parameter fit
[6] = target: human c-MET antigen (human) (UniProt P08581); assay: ELISA OD450 of clone supernatant divided by PBS blank
[7] = target: human c-MET antigen (human) (UniProt P08581); assay: ELISA, E. coli lysate supernatant of clone on human c-MET antigen

Molecule	Bottom [1] [MFI]	EC50 [1] [µg/mL]	Top [1] [MFI]	Bottom [2] [OD450]	EC50 [2] [µg/mL]	Top [2] [OD450]	Fab-ZAP endocytosis-mediated cell killing, Bottom (killing rate %) [3] [%]	Fab-ZAP endocytosis-mediated cell killing, EC50 [3] [nM]	Fab-ZAP endocytosis-mediated cell killing, Top (killing rate %) [3] [%]	Fab-ZAP endocytosis-mediated cell killing, Bottom (killing rate %) [4] [%]	Fab-ZAP endocytosis-mediated cell killing, EC50 [4] [nM]	Fab-ZAP endocytosis-mediated cell killing, Top (killing rate %) [4] [%]	Bottom [5] [MFI]	EC50 [5] [µg/mL]	Top [5] [MFI]	Unique seq/PBS (fold over PBS) [6]	OD450 [7] [OD450]
Isotype (antibody)	-124	9.74	722	0.0582	4.09	0.0795	–	–	–	–	–	–	–	–	–	–	–
MHB07-PC (Telisotuzumab) (antibody)	610	0.788	8340	0.0407	0.00925	2.02	49.7	0.0199	83.2	15.4	0.0128	98.3	18000	0.31	647000	–	–
B1	–	–	–	–	–	–	–	–	–	–	–	–	–	–	–	42.3	3.26
